T1: IRE1^LD-GST (human, UniProt O75460 19-486)
T1 construct: IRE1α, human, entire luminal and transmembrane domains, residues 19-486; the cytosolic effector domain is replaced by GST; also called IRE1α luminal and transmembrane domain fused to cytosolic GST; source: ΔERdj4 CHO cells, transfected, in lysate; not shown: GST, C-terminal, kept
T1 sequence (looked up): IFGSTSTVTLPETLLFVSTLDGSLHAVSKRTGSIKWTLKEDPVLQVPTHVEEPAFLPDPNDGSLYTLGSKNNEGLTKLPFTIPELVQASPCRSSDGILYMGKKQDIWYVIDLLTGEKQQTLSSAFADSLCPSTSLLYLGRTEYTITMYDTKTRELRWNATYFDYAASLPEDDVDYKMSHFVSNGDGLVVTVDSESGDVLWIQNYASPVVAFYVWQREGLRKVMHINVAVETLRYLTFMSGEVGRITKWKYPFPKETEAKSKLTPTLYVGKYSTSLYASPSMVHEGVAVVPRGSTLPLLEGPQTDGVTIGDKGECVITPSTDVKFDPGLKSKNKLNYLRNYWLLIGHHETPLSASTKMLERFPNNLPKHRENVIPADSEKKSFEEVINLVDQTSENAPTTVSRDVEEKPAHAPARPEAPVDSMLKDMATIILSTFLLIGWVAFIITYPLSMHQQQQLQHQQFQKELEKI


How the values were obtained:
[1] = target: the molecule itself; test: cross-linking; spontaneous Q105C-Q105C disulfide of IRE1^(LD Q105C)-GST in transfected ΔERdj4 CHO cells (alone or with ERdj4 or ERdj4^QPD); glutathione Sepharose; non-reducing SDS-PAGE and immunoblot
IRE1^LD-GST = target: T1, IRE1^LD-GST; test: pull-down; GST fusions recovered on glutathione Sepharose 4B from lysates of transfected ΔERdj4 CHO cells (co-transfected with ERdj4, ERdj4^QPD or ERdj6 where indicated); ATP-depleting lysis buffer; endogenous BiP by immunoblot; where indicated beads incubated 5 min with 3 mM ATP; settings: partners not purified

Row | fold recovery of BiP with co-transfected WT ERdj4 against ERdj4^QPD (IRE1^LD-GST) [fold] | Binder | fold decrease of the disulfide-linked dimeric fraction with co-transfected WT ERdj4 [1] [fold] | stoichiometry N [1]
1 | – | IRE1^(LD Q105C)-GST (domain or fragment, human, UniProt O75460 19-486, looked up, Q105C-Q105C disulfide between two copies in the dimeric species, IRE1α, human, luminal and transmembrane domains as in IRE1^LD-GST (residues 19-486), with Q105C; a modified version of IRE1^LD-GST; source: ΔERdj4 CHO cells, transfected, in lysate; not shown: GST, C-terminal, kept) IFGSTSTVTLPETLLFVSTLDGSLHAVSKRTGSIKWTLKEDPVLQVPTHVEEPAFLPDPNDGSLYTLGSKNNEGLTKLPFTIPELVCASPCRSSDGILYMGKKQDIWYVIDLLTGEKQQTLSSAFADSLCPSTSLLYLGRTEYTITMYDTKTRELRWNATYFDYAASLPEDDVDYKMSHFVSNGDGLVVTVDSESGDVLWIQNYASPVVAFYVWQREGLRKVMHINVAVETLRYLTFMSGEVGRITKWKYPFPKETEAKSKLTPTLYVGKYSTSLYASPSMVHEGVAVVPRGSTLPLLEGPQTDGVTIGDKGECVITPSTDVKFDPGLKSKNKLNYLRNYWLLIGHHETPLSASTKMLERFPNNLPKHRENVIPADSEKKSFEEVINLVDQTSENAPTTVSRDVEEKPAHAPARPEAPVDSMLKDMATIILSTFLLIGWVAFIITYPLSMHQQQQLQHQQFQKELEKI | 2.5 | 2
2 | 2.5 | endogenous BiP (CHO cells) (natural protein, BiP, the ER luminal Hsp70, Chinese hamster, endogenous in CHO cells; detected by immunoblot with anti-hamster BiP serum; source: endogenous, CHO cell lysate) not shown | – | –

Reference: publication PMC5733394, “A J-Protein Co-chaperone Recruits BiP to Monomerize IRE1 and Repress the Unfolded Protein Response” (Cell, 2017)
